Measurements as given in patent US9549967B2, “Regulation of sodium channels by PLUNC proteins” (The University of North Carolina at Chapel Hill, priority 2009, dated 2017).

Test system: human bronchial epithelial cultures
Assay: Airway surface liquid height by confocal microscopy in human bronchial epithelial cultures
Type: cell-based
Conditions: SPLUNC1 knockdown cultures; 50 ng/ml rSPLUNC1 added to airway surface liquid
From the text: shRNA-induced knockdown of SPLUNC1: Our strategy was to select shRNA sequences from Dharmacon that targeted SPLUNC1 effectively by using transient siRNA in an immortalized human airway epithelial cell line (denoted AALEB) (Lundberg et al., Oncogene 21:4577 (2002)). […] Passage-1 airway cells surviving one week of selection were then trypsinized and plated down on 12 mm T-clear inserts and differentiated under air liquid interface conditions. At the time of the functional assays, we measured airway surface liquid SPLUNC1 protein levels by Western blot to verify stable knockdown. An anti-luciferase shRNA-expressing adenovirus was infected separately as a control.
Confocal microscopy: To label airway surface liquid, Ringer containing Texas Red-dextran (2 mg/ml; Invitrogen) was added to human bronchial epithelial culture mucosal surfaces. Perfluorocarbon was added mucosally to prevent evaporation of the airway surface liquid and the culture placed in a chamber containing 100 μl Ringer on the stage of a Leica SP5 confocal microscope with a 63× glycerol immersion objective. 5 points per culture were scanned and an average airway surface liquid height determined. For confocal microscopy human bronchial epithelial cultures were bathed serosally in a modified Ringer solution containing (mM): 116 NaCl, 10 NaHCO3, 5.1 KCl, 1.2 CaCl2, 1.2 MgCl2, 20 TES, 10 glucose, pH 7.4). […]

B1: SPLUNC1: human SPLUNC1, 256 amino acid secreted PLUNC protein (SEQ ID NO:1); rSPLUNC1 = V5/6His-tagged protein purified from HEK293 media (protein, listed as Homo sapiens)
chain: MFQTGGLIVFYGLLAQTMAQFGGLPVPLDQTLPLNVNPALPLSPTGLAGSLTNALSNGLLSGGLLGILENLPLLDILKPGGGTSGGLLGGLLGKVTSVIPGLNNIIDIKVTDPQLLELGLVQSPDGHRLYVTIPLGIKLQVNTPLVGASLLRLAVKLDITAEILAVRDKQERIHLVLGDCTHSPGSLQISLLDGLGPLPIQGLLDSLTGILNKVLPELVQGNVCPLVNEVLRGLDITLVHDIVNMLIHGLQFVIKV
modifications: V5/6His tag
notes: rSPLUNC1 = V5/6His-tagged protein purified from HEK293 media
  regulation of airway surface liquid height: restored
